In publication PMC9177745 (Biochemistry, 2022):

Columns and labels:
[1] = biological target: T1, PhnY (in the 1:1 PhnY/Z system) (uncultured bacterium HF130_AEPn_1, UniProt D0E8I4); experiment: steady-state kinetics of the coupled PhnY/Z system; type: biochemical; details: two-enzyme PhnY/Z system; apparent Km of the system
T1 sequence (D0E8I4 1-262): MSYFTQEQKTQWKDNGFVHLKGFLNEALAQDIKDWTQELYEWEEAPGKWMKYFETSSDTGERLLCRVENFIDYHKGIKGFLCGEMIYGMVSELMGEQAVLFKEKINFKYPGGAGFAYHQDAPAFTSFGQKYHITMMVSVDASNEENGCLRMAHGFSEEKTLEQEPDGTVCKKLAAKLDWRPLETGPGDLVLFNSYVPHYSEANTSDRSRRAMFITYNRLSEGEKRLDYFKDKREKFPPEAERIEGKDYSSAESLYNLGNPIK

[2] = substrate: NC[C@H](O)P(=O)(O)O; experiment: steady-state kinetics, C-P bond cleavage; type: biochemical, uncultured bacterium HF130_AEPn_1; details: O2; mixed-valent diiron site
[3] = substrate: NCCP(=O)(O)O; experiment: steady-state kinetics, conversion to inorganic phosphate; type: biochemical, Fonsecaea multimorphosa; details: O2, alpha-ketoglutarate, Fe(II), ascorbate; apparent Km of the two-step reaction
[4] = substrate: NCCCP(=O)(O)O; experiment: as above; type: biochemical, Fonsecaea multimorphosa; details: two-step reaction to phosphate; co-substrates presumably as for 2AEP
[5] = substrate: NC[C@H](O)P(=O)(O)O; experiment: steady-state kinetics, C-P bond cleavage; type: biochemical, Fonsecaea multimorphosa; details: O2; mixed-valent diiron HD-domain site

NCCCP(=O)(O)O [3APP]
KM [1]: the PhnY/Z system is also able to act on 3APP

B1: PhnZ (uncultured bacterium HF130_AEPn_1) (protein)
chain: MSLSNSSKVSVLISLLEKSRDLDYIGEAINQLEHSLQCAYFAQRSGADNEMVLAALLHDLGHYCNDTSFEDMGGYGVWQHEKVGADYLRGLGFSERVACLIEGHVAAKRYLVSSKASYLKNLSDASRKTLEYQGGPMDEGERRLFEEREDFKDCLKIRAWDEKGKQTDLKVPGPEHYRKMMEEHLSENQN
Km [2]: 107 ± 29 µM
kcat [2]: 15 ± 3 s⁻¹

B2: PhoF (Fonsecaea multimorphosa CBS 102226) (protein)
chain: MSVPEEQMQFFRKNGYLILRNVLSEEETKDLQRWAQEVHDWPTDANSPWMPYEEINAQGQTVLCRTENYANSHAGLNGLLRGQKLLNLLKQLSGEDMLLFKEKINYKLAGSGGFAPHVDSTAYTHIKNIKHLAILLAVDPSDMSNGGLEVVEGSHEMNVPIGEDNCIEPDWVKQQKWTPVELKAGQVLVFGSYLAHRSGANHSNQDRKALYATYNCAREGDLHDEYYAHRKVVWPPAQLRKKGEEYKVGALVYGFGSPMLSVDAGKQLEFDEEEWKSKPRAAKAASRIIDILNQYGNSDYIGEPISQIEHSLQCAYLAAQNMADPQTVAAALLHDIGQIIPERDAEHILGGAQVRSMRQNSGIGADSRSSDSVGRVSHETLGAQYLLALGFPAKVAELVEAHVPAKRYLCATEKGYYSTLSDASKESLRFQGGPMSPDEVRLWQEGSWADEKANLRRWDDGAKVVGLTVPGLETYRPVLEQVLSS
Km [3]: 197 ± 73 µM
kcat [3]: 1.16 ± 0.17 s⁻¹
Km [4]: 305 ± 263 µM
kcat [4]: 0.57 ± 0.30 s⁻¹
Km [5]: 43 ± 23 µM
kcat [5]: 9 ± 2 s⁻¹
